This note sets out measurements from patent US20230242902A1, “A HIGHLY ERROR-PRONE […] R[…] FOR TARGETED CONTINUOUS EVOLUTION IN VIVO” (The Regents of the University of California, priority 2017, published 2023).

B1: L474D: TP-DNAP2 variant (protein)
chain: MDYKDKALNDLRNVYADFDSLPLDFRQILIKDRATLLQKEDVEKKILERQEDAKKYAEYLKQSEIPERISLPNIKRHKGVSISFEETSEDMVLEPRPFIFDGLNIRCFRRETIFSLKNKILNMVKESSSFKNVSRQSVSFMYFKIFNKGKVIASTKSVNIYEDKIDERLEDLCNNFDDVLKKIIDVTYGYESLFVSETYSYVIFYAKSIYFPQPRCVNNWGNNIPNILTFDSFKLFTANKNNVSCIKQCSRFLWQKDFNTLEEMIEYKNGNICIVTPQLHINDVRDIKSFNDIRLYSESPIKTFSVIDNTITYLFYFKEHLGVIFNITKSRHDRRVTKFSPLSKFSDVKNITVCFDIESYFDPEKESNQVNIPFICCASIIYNKVIGNIVDFEGRDCVAQMIEYVVDICGELNISSVELIAHNGGGYDFHYILSSMYNPAAIKNILIRNNSFISFNFAHDGVKFSVKDSYSFLDCSLANASKAFLNEETFKKTDFPHHDLKTADDLYKVYKEWSSVNTEINHVVEKEKLLITSEHIVNFTKNDKSKTLIEWSKDYCRNDVLVLSKVWLEFKNAVEDIFNCELVDQTMTLAGLSYKLFQANMPFDVELRHPNKEDYFNMREALIGGRCISVNGIYKDVLCLDVKSLYPASMAFYDQPYGSFKRVSSRPKDELGIYYVRVTPNRNNKSNFFPIRSHNKITYNNFEESTYIAWYTNVDIDIGLSEGHNIEYIPFDSYGNIGYSWSKKGKIFEKYIKDVLYKLKIKYEKQNNKVKRNVIKIIMNSLWGKFAQKWVNFEYFIKSEDDIDFESEEAYKIWDTDFMLIKKIKESTYSSKPIQNGVFTLSWARYHMKSIWDAGAKEGAECIYSDTDSIFVHKEHFKKNAKFMLNGLKVPIIGSEVGQLELECEFDKLLCAGKKQYMGFYTYFQDGKPCIKEKKRFKGIPSNYIIPELYAHLLSGADKEAKIQFLKFRREWGSVKGYIENKTVKAT
B2: L474A: TP-DNAP2 variant (protein)
chain: B1 chain with D474A
B3: L474V: TP-DNAP2 variant (protein)
chain: B1 chain with D474V
B4: Y424E: TP-DNAP2 variant (protein, listed as Kluyveromyces lactis)
chain: MNDELAFLNSQIDDYSDDIEFLRTEVFRINRYSKSIYSLMKNSSKEAIKETIEFNKYGQEIHSKIKEKEISLIEAIKLMEKKYKYLRSLNKTKDKSKKKKIHTKDIETLKTIYKTKADFDIRNFKNAETFTYENYSLLIPSEKELIDLIPEIEEDYSYYFYVSLTITGPTIFGGVTRKVPIIDTYGDINKDFYNKIKENITKVLDRVPFYEEKESEIICKKVLITLTVNKWESIDKWYKNVKSKSKKFKDFTLFLASDTSKNCVQQCVEYLGGKWNTNYSLEKMIPQQKIVTYIPLLMDIQYVQSMEDLISDFDEPNTDCKNIARLLKWNGHMGVITKIDKDVKINRIQRKRIIDVENKEVKEVFFDIESFSDETKHQIPYLICWSYLGELYYRTGKNCIKEFVEEILSYNVDIILYAWYGSGEDYQHVLPYMKSKCIKDKYIIKNNMITYGELYYENAIIYLKDPYLFILTSLDKASKAFNVINKGEFPHSIIHSWEDLNKILPNWVKIQKRMIEYKDDNKLNIYYKNIEIFENDRNYNTILENAIEYCKVDVLAMEKVWIKFKKLLEKNLNITVSVKTFTLSQLSMKIMESKLPKYVKLYVPTLEEYSKIRNAIYGGRVISKNGIYEENIVYADVVSLYPSAMKLLKHSYGKPKLVDYIDFEKHGIYRVTLLNKHDQEPKNYLNFVPRRINRKLTWEWFKIHEGWYHTYDLIIAKSEGFDIYCHEGFEYPEKDYIFNDFIDTLYSMKETHTACSCEEQPCPIRMVAKIALNGGGYGKFVQKPIDKEIYIVKRDVVAGECDKLQENENGEICIGKRLVKRPLFYNLDSENYDKMIIEKEDEPIYSTQCGISILSASRYRLYKLCKQFENIDIIYSDTDSIFVKQKSVDWELFKSKCGSELGQLDSTIDDTKNAIISKMYIGGAKMYAFEYLNNKNKLITKLHCKGVPNYMLSLNQFKYLMESPDNTIAYKFEIIRRKLVNVITKDLIKDIKQT

Changes are numbered by the printed parent chain. Names and notes keep the numbering of the source.

In one experiment the test system is p2-encoded leu2*. The experiment is described as follows: p2 leu2* fluctuation tests in GA-Y021 (p2 mutation rate reporter strain). It is filed as cell-based, S. cerevisiae. Particulars: TP-DNAP2 variant in trans, wt TP-DNAP2 in cis, 36 replicates, (95% C.I.). The source says:
For fluctuation tests used to measure p2 mutation rates, leu2* served as a marker for detecting mutational events. leu2* is a disabled version of LEU2, where Q180 is replaced with a TAA stop codon. Q180 is a permissive site where mutation to any other codon other than TAG and TGA results in functional reversion to LEU2. These mutational events can be detected by plating scores of parallel cultures on medium lacking leucine and counting the number distribution of functional LEU2 mutants.
For TP-DNAP2 library screening, each library member was subjected to small-scale leu2* fluctuation tests with six replicates. 190 library members from each yeast library transformation were arrayed and inoculated into liquid SC medium lacking uracil and histidine, and passaged three times at 1:10,000 dilutions. mKate2 fluorescence was measured at every passage on a microplate reader (TECAN Infinite® 200 PRO, settings: λex=588, λem=633) to track p2 copy number stabilization. To perform fluctuation tests, each library member was diluted 1:10,000 into liquid SC medium buffered to pH 5.8 and lacking uracil, histidine, tryptophan, and dilutions were split into six 100 μL replicates. Cultures were grown for 48 hours at 30° C. to reach saturation. Saturated cultures were washed with 200 μL 0.9% NaCl to remove residual leucine and resuspended in 35 μL of 0.9% NaCl. 10 μL of this resuspension was spot plated onto solid SC medium buffered to pH 5.8 and lacking uracil, histidine, tryptophan and leucine. Spot plates were allowed to dry and incubated at 30° C. Colonies were counted after 5 days. Colony counts were used to calculate the expected number of LEU2 functional mutants (m), using the p0 method (Foster, 2006, Methods Enzymol, 409:195-213).
To precisely measure p1 and p2 per-base substitution mutation rates, several modifications were made to the small-scale protocol. First, 36 replicates were performed for reconfirmation of candidate TP-DNAP2 mutators, and 48 replicates for genomic and mutual orthogonality experiments. Titers were also determined for each strain after spot plating by pooling the residual volume from 4 replicates and plating dilutions on YPD. The expected number of LEU2 functional mutants (m) was determined by the Ma-Sandri-Sarkar maximum likelihood estimator (as calculated by the FALCOR tool and corrected for partial plating (Foster, 2006, Methods Enzymol, 409:195-213; Sarkar et al., 1992, Genetica, 85:173-179; Hall et al., 2009, Bioinformatics, 25:1564-1565). The mean mKate2 fluorescence was determined from 50,000 event counts on Attune™ NxT Flow Cytometer and converted to p2 copy number by using a calibration curve. To determine per-base substitution rates, the corrected m was normalized to the average cell titer, the p2 copy number, and the target size for functional leu2* reversion (2.33 bp). 95% confidence intervals were similarly scaled.
To identify error-prone TP-DNAP2s, a small library of TP-DNAP2s diversified at locations hypothesized to be responsible for DNAP fidelity was screened. […] Four distinct site-saturation mutagenesis libraries were generated, each diversifying S370, Y424, L474, or F882 in TP-DNAP2 encoded on pGA55-reTP-DNAP2. Due to unsuccessful attempts to generate a strain with a full deletion of p2-encoded TP-DNAP2 and simultaneous integration of mKate, URA3, and leu2*, each library was transformed into GA-Y021 for convenient screening. However, since GA-Y021 still encodes wt TP-DNAP2 on p2-delORF1-mUL*, p2 mutation rates measured in this format are the result of in tandem replication of p2 by wt TP-DNAP2 and each TP-DNAP2 variant encoded in trans. 6-fold coverage of each library was maintained by picking 190 yeast colonies and passaging under selection for URA3 to stabilize the copy number of p2-delORF1-mUL* in the presence of the newly introduced TP-DNAP2 variants. […]
In the case of B1, the “Per-base substitution rate pf p2” value is 12.2 (7.33-17.9) ×10^−10.

In the case of B2, the “Per-base substitution rate pf p2” value is 8.37 (4.80-12.6) ×10^−10.

B3: the “Per-base substitution rate pf p2” value is given as 5.76 (2.88-9.33) ×10^−10.

For B4, the “Per-base substitution rate pf p2” value is listed as 73.3 (55.2-93.3) ×10^−10.

The experiment is the same for the next values; noted with them: p2 substitution rate over no variant in trans.
In turn, B1 returned a Fold increase of 2.0.

For the molecule B2, the Fold increase worked out at 1.4.

Regarding B3, the Fold increase turned out to be 1.0.

B4 registered a Fold increase of 12.3.
